Experimental data from the nanobody polyreactivity screen of Harvey et al. (2022).

experiment: yeast display, Sf9 membrane polyspecificity reagent, FACS + sequencing; frameworks hold sequencing errors
Outline: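 Nanobodies came from a synthetic yeast display library in Saccharomyces cerevisiae BJ5465, induced with galactose for 36–48 hours and stained for 1 hour at 4 °C with 10% biotinylated, detergent-solubilized Sf9 membrane reagent. Cells were enriched on streptavidin microbeads and then FACS-sorted, with low and high (top ~1%) gates set on anti-HA fluorescence for expression and streptavidin fluorescence for reagent binding. Each polyreactivity label reflects the gate a clone came from. Genes were amplified by colony PCR, sequenced by MiSeq 2 × 250 and filtered by CDR length.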

Row | Sequence | polyreactivity (PSR sort gate)
1 | QVQLVESGGGLVQAGGTLRLSCAASGMTFSRNGMGWYRQAPGKEREVVADISYRGGRTYYADSVKGRFTFSRDNAKNTVYLQMHSLKPEDTAVYYCNAVFLVGVGPTSDYWGQRTQVTVSS | high polyreactivity
2 | QVQLVESGGGLVQAGGTLRLSCAASGRIFFSYAMGWYRQAPGKERELVAAITYSGGSTYYADSVKGRFTISRDNAKNTVYLQKNSLKPEDTAVYYCNAELYEKYDYWGQGTQVTLSS | low polyreactivity
3 | QVQLVESGGGLVQAGGTLRLSCAASGRIFFTNAMRRYRQASGKESELVAAISKSGARTYYADSVKGRFTISRDNAKNTVYLQMNSLKPEDTAVYYCAGDVSVAGYYYWGEGTQVTVSS | high polyreactivity
4 | QVQLVESGGGLVQAGGTLRLSCAASGRIFPYYAMGWYRQAPGKERELVAAINSGGSTYYADSVKGRFTISRDNEKNTVYLQMNSLKPEDSAVYYCAVDPGYYDEYNYWGEGTQVTVSS | low polyreactivity
5 | QVQLVESGGGLVQAGGTLRLSCAASGRTFNTYAMGWYRLAPGKERELVAAITVPGGSTYYADSVKGRFTLSRDNAKNTVYLQMNSLKPADTAVYYCAAERPPDGYLVVGYVSTQYYYWGQGTQVTVSS | low polyreactivity
6 | QVQLVESGGGLVQAGGTLRLSCAASGRTFTYYAMGWYRQAPGKERELVATIRSGGTTNYADSVKGRFTISRDNAKNTVYLQMNSLKPEDTAEYYCARVLSYVWYYRDPYQYPDYDFWGQGTQVTGSS | low polyreactivity
7 | QVQLVESGGGLVQAGGTLRLSCAASGRTFVPYAMGWYRQAPGKERELVATISSSGGSTYYADSVKGRFTISRDNSKNTVYLQMNSLKPEDTAVYYCATADRWSSSYYRSVRWYHYDYWGQGTQVTVSS | low polyreactivity
8 | QVQLVESGGGLVQAGGTLRLSCAASGRTIRNYARGRYRQAPVKERELVAAITWSGGSTYYADSVKGRFTISRDNAKNTVYLQMNSLKPEDTAVYYCNVRYYTRTYNYWGQGTQVTVSS | high polyreactivity
9 | QVQLVESGGGLVQAGGTLRLSCAASGSIFNPYAMGWYRQAPGKDRELVATITRPGRTNYADSVKGRFTISRDHAENTVYLQMNSLKPEDTAVYYCAAYTSYGVYYWGQGTQVTVSS | high polyreactivity
10 | QVQLVESGGGLVQAGGTLRLSCAASGSIFYGNAMGWYREAPGKERQLVAAIDGTGASTYYADSVKGRFTISRDNAKNPVYLQMNSLKPEDTAVYYCNKALTSKDYPVRTVERDYWGQGTQVTVSS | low polyreactivity
11 | QVQLVESGGGLVQAGGTLRLSCAASGSTFRYNAMGWYRQEPGKEWELVAAITDSGSSTYYADSVKGRFTISRDNAKNTVYLQMNSLKPEDTAVYYCAAAGSRYAWGYVYWGQGTQVTVSS | high polyreactivity
12 | QVQLVESGGGLVQAGGTLRLSCAASGSTFSYNAMGWYRQAPGKERELVAAISGSGGRTYYADSVKGRFTISRDNAKNTVYLQMNSLKPEDTAVYYCAARVGAGWSPKYDYWGQGTQVTVSS | high polyreactivity
13 | QVQLVESGGGLVQAGGTLRLSCAASGSTFVYNAMGWYRQAPGKERDLVATITGGGSTYYADSVKGRFTISRDNAKNTVYLQMNSLKPEDTAVYYCSKRRDSYDVEYDYWGQGTQVTVSS | low polyreactivity
14 | QVQLVESGGGLVQAGGTLRLSCAASGYIFVIYAMGWYRQAPGKEREWVAAISWSGDTTYYADSVKGRFTISRDNAKNTVYLQMNSLKPEDTAVYYCNAETAYYQVDYWGQGTQVTVSS | low polyreactivity
15 | QVQLVESGGGLVQAGGTLRLSCAPSGSIFGDYVMGWYRQAPGKEWELVAAINRGGSTYYADSVKGRFTISRDNAKNTVYLQMKSLKPEDTAVYYCAAGYPSWYYGYPYDSWGQGTQVTVSS | low polyreactivity
16 | QVQLVESGGGLVQAGGTLRLSCAPSGSTFFPYAMGWYRQAPGKEREFVSAIRGSGGVSTYYADSVKGRFTISRDNAKNTVYLQMNSLKPEDTAVYYCAKYVARRVPRGFYYWGQGTQVTVSS | high polyreactivity
17 | QVQLVESGGGLVQAGGTLRLSCSATGYIFWSYAMGGYRQAPGKERELVAGITASGGSTYYADSVKGRFTISRDNAKNTVYLQMNSLKPEDTAVSYCAVALRSTPRTREVRPSPRVYYWGQGTQVTVSS | high polyreactivity
